Here are results for 3 molecules from US20050158311A1.

Test in all cases: cell-based or functional assay
The target of assay [1] is Dishevelled (overexpressed in 293T cells).
Assay [2] concerns the target endogenous Ryk of mouse (brain cell lysate; DRG explants) (mouse) (UniProt Q01887).
Assay [3] concerns the target over-expressed Ryk (from a transfected DNA construct expressing Ryk).
Assay [4] deals with endogenous Ryk of 293T cells (human) (UniProt P34925).
Sequence of UniProt P34925 (P34925 26-607 limits assumed): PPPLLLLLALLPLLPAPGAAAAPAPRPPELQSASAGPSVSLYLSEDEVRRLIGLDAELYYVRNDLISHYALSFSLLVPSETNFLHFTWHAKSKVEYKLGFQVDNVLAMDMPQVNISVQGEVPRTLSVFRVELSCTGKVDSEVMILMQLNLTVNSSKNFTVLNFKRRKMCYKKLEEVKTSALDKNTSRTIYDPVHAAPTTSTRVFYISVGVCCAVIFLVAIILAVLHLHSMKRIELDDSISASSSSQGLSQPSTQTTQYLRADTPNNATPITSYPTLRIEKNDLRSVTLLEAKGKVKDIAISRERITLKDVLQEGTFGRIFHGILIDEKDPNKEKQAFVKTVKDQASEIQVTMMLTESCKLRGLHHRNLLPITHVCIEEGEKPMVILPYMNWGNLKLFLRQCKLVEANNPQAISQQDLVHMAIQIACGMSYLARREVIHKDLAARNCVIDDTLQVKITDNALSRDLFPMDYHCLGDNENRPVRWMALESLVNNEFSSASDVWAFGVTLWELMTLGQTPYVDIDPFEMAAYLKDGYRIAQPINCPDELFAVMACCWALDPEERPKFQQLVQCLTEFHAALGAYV

Sequence of UniProt Q01887 (Q01887 35-594 limits assumed): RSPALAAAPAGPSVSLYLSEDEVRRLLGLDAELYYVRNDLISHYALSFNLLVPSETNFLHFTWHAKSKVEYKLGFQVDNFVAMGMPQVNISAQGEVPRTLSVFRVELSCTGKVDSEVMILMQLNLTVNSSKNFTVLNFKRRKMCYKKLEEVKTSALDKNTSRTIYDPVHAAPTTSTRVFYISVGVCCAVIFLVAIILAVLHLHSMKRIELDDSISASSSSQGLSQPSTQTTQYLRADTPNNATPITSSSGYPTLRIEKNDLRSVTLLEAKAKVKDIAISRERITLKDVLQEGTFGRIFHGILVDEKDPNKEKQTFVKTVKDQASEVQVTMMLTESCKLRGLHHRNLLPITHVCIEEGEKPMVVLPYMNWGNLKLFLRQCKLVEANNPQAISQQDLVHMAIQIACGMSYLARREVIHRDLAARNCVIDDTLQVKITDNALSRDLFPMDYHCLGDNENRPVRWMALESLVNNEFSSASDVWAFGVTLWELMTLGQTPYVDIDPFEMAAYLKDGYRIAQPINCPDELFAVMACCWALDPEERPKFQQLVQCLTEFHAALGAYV

In assay [1], “over-expressed Ryk (from a transfected DNA construct expressing Ryk) (receptor)” showed an activation of the TCF-luciferase reporter of 25 fold.
“Wnt3a (Wnt3a conditioned medium) (ligand)” came in with an average length of neurites of DRG explants, Ryk siRNA mice against wild type in assay [2] of 2 fold. The activation of the TCF-luciferase reporter in assay [3] is 5 fold.

B1: Wnt-1 (cotransfected in the TCF-luciferase reporter assay) (ligand, UniProt P04628 28-370, looked up, species assumed)
Proto-oncogene Wnt-1: ANSSGRWWGIVNVASSTNLLTDSKSLQLVLEPSLQLLSRKQRRLIRQNPGILHSVSGGLQSAVRECKWQFRNRRWNCPTAPGPHLFGKIVNRGCRETAFIFAITSAGVTHSVARSCSEGSIESCTCDYRRRGPGGPDWHWGGCSDNIDFGRLFGREFVDSGEKGRDLRFLMNLHNNEAGRTTVFSEMRQECKCHGMSGSCTVRTCWMRLPTLRAVGDVLRDRFDGASRVLYGNRGSNRASRAELLRLEPEDPAHKPPSPHDLVYFEKSPNFCTYSGRLGTAGTAGRACNSSSPALDGCELLCCGRGHRTRTQRVTERCNCTFHWCCHVSCRNCTHTRVLHECL
In assay [4], B1 gave an activation of the TCF-luciferase reporter of 25 fold and a fold decrease in TCF-driven transcription in Ryk siRNA-containing 293T cells of 12 fold.
